This is an account of results in article doi:10.1101/743195.

The assay concerns the target human low-density lipoprotein (LDL) particles (human). Put plainly: co-sedimentation.

Substance “PCSK9 A44P (from UniProt Q8NBP7) (natural protein)” returned a percent inhibition of LDL binding against WT greater than 90%. Take “PCSK9 Y38A (from UniProt Q8NBP7) (natural protein)”: the percent decrease of LDL binding is greater than 50%.
